Experiment [1] has as its target T1, TNF alpha (UniProt P01375 77-233, limits assumed).
T1 construct: also called tumour necrosis factor; TNFSF2
Description: SPR (BIAcore 3000), TNF alpha captured by immobilised antibody AHC3712, binder injected. As for the experimental part: (§1) Surface plasmon resonance (SPR) binding analysis was performed on a BIAcore 3000 instrument (BiaCore, Sweden). TNF alpha capture antibody (AHC3712, Biosource International) to be immobilized was dissolved in 10 mM NaAcetate pH 5.0 and then immobilized on a CM5 BiaCore sensor chip using the Amine Coupling kit (BiaCore, Sweden).
(§2) Binding analysis was performed at a flow rate of 5 μl/min. Before loading of the protein sample, the chip was equilibrated in 10 mM Tris pH 8.0, 150 mM NaCl, 2 mM CaCl₂, 50 μM EDTA and 0.005% Surfactant P20. TNF alpha was dissolved in 10 mM Tris pH 8.0, 150 mM NaCl, 2 mM CaCl₂ at 10 μg/mL and 10 μL was injected. Aliquots (20 μl) of TNF alpha binders in monomeric or the trimeric format were injected using the KINJECT option. Five min of dissociation were allowed before the chip was regenerated with 10 mM Glycine pH 2.5. Binding of TNF alpha binders was tested at six different protein concentrations, ranging from 1 to 200 nM. Binding data were evaluated using the BIAevaluation program version 3.2 (BiaCore).
A general note: SPR reads the build-up and loss of mass on a sensor chip optically.

Experiment [2] deals with T1, TNF alpha. Description: SPR; off rate of the trimer against monomeric TN3-2-B. As for the experimental part:
as §1, §2

Experiment [3] addresses T1, TNF alpha. As to the kind of experiment: SPR; fold increase in affinity of the trimer over monomeric TN3-2-B. As for the experimental part: as §1, §2
In experiment [4] the target is T1, TNF alpha. Description: SPR; fold increase in affinity of the trimer over monomeric TN3-2-C. As for the experimental part:
as §1, §2

Experiment [5] addresses T1, TNF alpha. Description: SPR; fold increase in affinity of the trimer over monomeric TN3-2-D. The protocol: as §1, §2

T1 sequence (P01375 77-233 limits assumed): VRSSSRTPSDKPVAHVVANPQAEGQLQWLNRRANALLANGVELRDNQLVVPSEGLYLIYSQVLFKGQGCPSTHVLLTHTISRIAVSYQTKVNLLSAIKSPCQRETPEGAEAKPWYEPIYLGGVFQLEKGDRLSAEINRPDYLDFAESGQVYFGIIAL

B1: TN3-2-B (monomeric) (designed binder)
chain: ALQTVCLKGTKVHMKCFLAFTQTKTFHEASEDCISRGGTLSTPQTGSENDALYEYLRQSVGNEAEIWLGLNKVRSRYFWMDMTGTRIAYKNWETEITAQPDPTNNENCAVLSGAANGKWFGKRCRDQLPYICQFGIV
notes: Purified monomer from the E. coli periplasm (pBAD) for SPR
Consider B1, for which, in the experiment with TNF alpha [1], the Kd (usually the concentration at which binding is half-saturated) came to 73 nM; the koff (in general, the rate constant with which the complex falls apart) was 0.923 s⁻¹; the kon (as a rule, the rate constant with which the complex forms) is 1.4e+07 M⁻¹ s⁻¹.

B2: TN3-2-D (monomeric) (designed binder)
chain: ALQTVCLKGTKVHMKCFLAFTQTKTFHEASEDCISRGGTLSTPQTGSENDALYEYLRQSVGNEAEIWLGLNKVRSRYFWIDMTGTRIAYKNWETEITAQPDPNNRENCAVLSGAANGKWFGKRCRDQLPYICQFGIV
notes: as for B1
Turning to B2, in the experiment with TNF alpha [1], the dissociation constant (Kd) is 50 nM, the koff came out at 0.0185 s⁻¹ and the kon was determined as 364000 M⁻¹ s⁻¹.

B3: TN3-2-C (monomeric) (designed binder)
chain: ALQTVCLKGTKVHMKCFLAFTQTKTFHEASEDCISRGGTLSTPQTGSENDALYEYLRQSVGNEAEIWLGLNKVRSRYFWVDMTGTRIAYKNWETEITAQPDPTNRENCAVLSGAANGKWFDKRCRDQLPYICQFGIV
notes: as for B1
In the experiment with TNF alpha [1], B3 registered a Kd of 150 nM, a koff of 0.022 s⁻¹ and a kon of 134000 M⁻¹ s⁻¹.

B4: TN-2-B (trimeric) (designed binder)
chain: EPPTQKPKKIVNAKKDVVNTKMFEELKSRLDTLAQEVALLKEQQALQTVCLKGTKVHMKCFLAFTQTKTFHEASEDCISRGGTLSTPQTGSENDALYEYLRQSVGNEAEIWLGLNKVRSRYFWMDMTGTRIAYKNWETEITAQPDPTNNENCAVLSGAANGKWFGKRCRDQLPYICQFGIV
notes: also called trimeric version of TN3-2-B
Regarding B4, the “fold improvement of off value” with TNF alpha [2] is more than 1000 fold. The same molecule registered a Fold increase in the experiment with TNF alpha [3] of 304 fold. Also, in the experiment with TNF alpha [1], the Kd is approximately 0.24 nM, the koff was 0.000736 s⁻¹ and the kon was determined as 3.02e+06 M⁻¹ s⁻¹.

B5: TN-2-C (trimeric) (designed binder)
chain: EPPTQKPKKIVNAKKDVVNTKMFEELKSRLDTLAQEVALLKEQQALQTVCLKGTKVHMKCFLAFTQTKTFHEASEDCISRGGTLSTPQTGSENDALYEYLRQSVGNEAEIWLGLNKVRSRYFWVDMTGTRIAYKNWETEITAQPDPTNRENCAVLSGAANGKWFDKRCRDQLPYICQFGIV
notes: also called trimeric version of TN3-2-C
The molecule B5 returned a Fold increase with TNF alpha [4] of 37 fold. Also, in the experiment with TNF alpha [1], the Kd stood at 4 nM, the koff is 0.00353 s⁻¹ and the kon turned out to be 884000 M⁻¹ s⁻¹.

B6: TN-2-D (trimeric) (designed binder)
chain: EPPTQKPKKIVNAKKDVVNTKMFEELKSRLDTLAQEVALLKEQQALQTVCLKGTKVHMKCFLAFTQTKTFHEASEDCISRGGTLSTPQTGSENDALYEYLRQSVGNEAEIWLGLNKVRSRYFWIDMTGTRIAYKNWETEITAQPDPNNRENCAVLSGAANGKWFGKRCRDQLPYICQFGIV
notes: also called trimeric version of TN3-2-D
B6 returned a Fold increase with TNF alpha [5] of 12 fold. Further, in the experiment with TNF alpha [1], the Kd was 4.1 nM, the koff amounted to 0.00207 s⁻¹ and the kon came to 506000 M⁻¹ s⁻¹.
